The record followed here is IntAct's records for PubMed 16401726.

B1: UV excision repair protein RAD23 (Saccharomyces cerevisiae), P32628 (parent)
chain: MVSLTFKNFKKEKVPLDLEPSNTILETKTKLAQSISCEESQIKLIYSGKVLQDSKTVSECGLKDGDQVVFMVSQKKSTKTKVTEPPIAPESATTPGRENSTEASPSTDASAAPAATAPEGSQPQEEQTATTERTESASTPGFVVGTERNETIERIMEMGYQREEVERALRAAFNNPDRAVEYLLMGIPENLRQPEPQQQTAAAAEQPSTAATTAEQPAEDDLFAQAAQGGNASSGALGTTGGATDAAQGGPPGSIGLTVEDLLSLRQVVSGNPEALAPLLENISARYPQLREHIMANPEVFVSMLLEAVGDNMQDVMEGADDMVEGEDIEVTGEAAAAGLGQGEGEGSFQVDYTPEDDQAISRLCELGFERDLVIQVYFACDKNEEAAANILFSDHAD
partner: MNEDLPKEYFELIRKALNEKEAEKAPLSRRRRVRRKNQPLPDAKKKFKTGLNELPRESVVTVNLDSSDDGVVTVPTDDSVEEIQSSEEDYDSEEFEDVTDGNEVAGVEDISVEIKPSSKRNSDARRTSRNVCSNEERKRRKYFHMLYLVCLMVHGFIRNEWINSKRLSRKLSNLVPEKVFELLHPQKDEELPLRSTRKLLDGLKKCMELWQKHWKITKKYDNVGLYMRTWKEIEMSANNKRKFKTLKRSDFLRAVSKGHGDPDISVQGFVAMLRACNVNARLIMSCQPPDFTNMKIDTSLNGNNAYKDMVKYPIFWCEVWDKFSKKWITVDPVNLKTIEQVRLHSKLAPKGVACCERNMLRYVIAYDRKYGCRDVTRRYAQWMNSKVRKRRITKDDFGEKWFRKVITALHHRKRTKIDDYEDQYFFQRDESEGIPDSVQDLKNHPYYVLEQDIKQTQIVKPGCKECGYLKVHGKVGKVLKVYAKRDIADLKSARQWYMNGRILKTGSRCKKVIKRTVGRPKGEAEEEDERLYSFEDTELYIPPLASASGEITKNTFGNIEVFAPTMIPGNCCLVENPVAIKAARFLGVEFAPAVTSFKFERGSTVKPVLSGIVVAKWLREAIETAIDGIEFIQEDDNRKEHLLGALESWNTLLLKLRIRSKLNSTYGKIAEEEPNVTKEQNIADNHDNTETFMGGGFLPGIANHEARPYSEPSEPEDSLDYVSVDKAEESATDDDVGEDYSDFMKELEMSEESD
B2: UV excision repair protein RAD23 (Saccharomyces cerevisiae), P32628 (parent)
chain: B1 chain
partner: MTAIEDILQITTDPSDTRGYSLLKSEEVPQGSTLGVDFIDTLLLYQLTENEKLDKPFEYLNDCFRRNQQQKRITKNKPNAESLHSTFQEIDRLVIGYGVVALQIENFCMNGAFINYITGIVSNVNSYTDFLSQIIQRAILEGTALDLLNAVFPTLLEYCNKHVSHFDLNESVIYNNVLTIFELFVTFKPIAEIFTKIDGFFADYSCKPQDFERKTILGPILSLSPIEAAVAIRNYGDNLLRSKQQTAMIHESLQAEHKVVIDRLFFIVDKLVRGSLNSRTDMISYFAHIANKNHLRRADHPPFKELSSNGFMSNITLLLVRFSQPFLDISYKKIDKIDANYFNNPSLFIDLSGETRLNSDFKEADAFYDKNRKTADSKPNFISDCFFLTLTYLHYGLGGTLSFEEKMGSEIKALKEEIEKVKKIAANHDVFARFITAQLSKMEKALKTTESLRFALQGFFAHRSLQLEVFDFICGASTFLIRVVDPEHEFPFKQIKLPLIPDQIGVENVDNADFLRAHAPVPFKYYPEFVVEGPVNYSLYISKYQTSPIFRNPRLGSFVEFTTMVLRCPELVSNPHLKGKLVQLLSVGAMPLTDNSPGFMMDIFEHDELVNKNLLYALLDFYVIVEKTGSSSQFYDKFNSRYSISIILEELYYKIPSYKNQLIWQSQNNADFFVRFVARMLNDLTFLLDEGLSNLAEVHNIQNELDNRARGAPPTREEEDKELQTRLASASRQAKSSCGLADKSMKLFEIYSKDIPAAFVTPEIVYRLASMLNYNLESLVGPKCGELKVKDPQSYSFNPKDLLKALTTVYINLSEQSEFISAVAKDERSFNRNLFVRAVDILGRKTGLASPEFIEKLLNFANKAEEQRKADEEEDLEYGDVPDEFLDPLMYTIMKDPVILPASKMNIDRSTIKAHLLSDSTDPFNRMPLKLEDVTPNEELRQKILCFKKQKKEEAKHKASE
B3: UV excision repair protein RAD23 (Saccharomyces cerevisiae), P32628 (parent)
chain: B1 chain
partner: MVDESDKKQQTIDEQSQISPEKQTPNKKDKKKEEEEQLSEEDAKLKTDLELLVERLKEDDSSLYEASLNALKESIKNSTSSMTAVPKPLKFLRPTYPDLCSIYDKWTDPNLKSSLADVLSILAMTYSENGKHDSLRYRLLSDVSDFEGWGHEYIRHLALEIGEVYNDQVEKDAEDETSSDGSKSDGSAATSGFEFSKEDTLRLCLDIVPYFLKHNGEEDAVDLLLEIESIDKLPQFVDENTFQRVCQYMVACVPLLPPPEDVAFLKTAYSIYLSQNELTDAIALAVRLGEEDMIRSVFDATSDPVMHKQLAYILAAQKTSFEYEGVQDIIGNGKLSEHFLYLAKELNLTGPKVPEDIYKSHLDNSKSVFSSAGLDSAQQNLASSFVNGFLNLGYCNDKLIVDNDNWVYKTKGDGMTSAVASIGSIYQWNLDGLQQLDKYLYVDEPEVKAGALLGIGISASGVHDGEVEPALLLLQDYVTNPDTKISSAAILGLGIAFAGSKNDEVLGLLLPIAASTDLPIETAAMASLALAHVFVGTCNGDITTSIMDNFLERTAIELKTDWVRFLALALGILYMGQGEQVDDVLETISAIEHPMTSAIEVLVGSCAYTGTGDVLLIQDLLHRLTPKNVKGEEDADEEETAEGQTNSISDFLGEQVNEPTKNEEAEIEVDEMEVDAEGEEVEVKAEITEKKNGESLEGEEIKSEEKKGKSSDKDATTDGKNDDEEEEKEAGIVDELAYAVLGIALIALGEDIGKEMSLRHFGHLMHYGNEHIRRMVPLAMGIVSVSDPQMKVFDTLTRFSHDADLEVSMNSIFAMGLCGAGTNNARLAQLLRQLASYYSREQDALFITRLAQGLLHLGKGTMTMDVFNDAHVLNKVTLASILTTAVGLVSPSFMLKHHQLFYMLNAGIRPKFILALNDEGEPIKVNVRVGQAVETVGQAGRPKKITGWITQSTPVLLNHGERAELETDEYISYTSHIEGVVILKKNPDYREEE
B4: UV excision repair protein RAD23 (Saccharomyces cerevisiae), P32628 (parent)
chain: B1 chain
partner: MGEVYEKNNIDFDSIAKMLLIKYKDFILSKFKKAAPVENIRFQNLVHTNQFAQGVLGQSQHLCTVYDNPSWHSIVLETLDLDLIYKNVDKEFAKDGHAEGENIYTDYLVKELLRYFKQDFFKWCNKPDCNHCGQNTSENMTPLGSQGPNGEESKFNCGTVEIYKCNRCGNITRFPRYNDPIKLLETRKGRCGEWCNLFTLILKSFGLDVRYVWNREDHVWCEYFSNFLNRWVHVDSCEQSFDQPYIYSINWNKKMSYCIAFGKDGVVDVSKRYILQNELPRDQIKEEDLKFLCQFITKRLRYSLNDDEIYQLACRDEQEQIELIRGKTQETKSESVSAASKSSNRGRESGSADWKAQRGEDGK
B5: "Peptide-N(4)-(N-acetyl-beta-glucosaminyl)asparagine amidase" (Saccharomyces cerevisiae), Q02890 (parent)
chain: B4 partner
partner: B1 chain

In the first assay the parent is B1. The conditions noted are these: with rad4_yeast RAD4, P14736.
On to L276Q, for which the “effect of a mutation on the interaction” value is “with no effect”.

The next assay covers variants of B2. Particulars: with ufd2_yeast UFD2, P54860.
With L276Q, the “effect of a mutation on the interaction” value was “with no effect”.

Variants of B3 are the subject of the next assay. The conditions noted are these: with rpn1_yeast RPN1, P38764.
For L183A;L392A, the “effect of a mutation on the interaction” value was “with no effect”.
Consider L276Q, for which the “effect of a mutation on the interaction” value was “with no effect”.

In a further assay the parent is B4. Particulars: with png1_yeast PNG1, Q02890.
L183A;L392A: the “effect of a mutation on the interaction” value was “with no effect”.
Same read-out and setting: under L276Q stands “disrupting interaction strength”.

In another assay the parent is B5. The conditions noted are these: with rad23_yeast RAD23, P32628.
For the variant H218Y, the “effect of a mutation on the interaction” value is “with no effect”.
